The source of these data is a protein production outcome set (Wang et al. 2014).

This data set is described as follows: label from the status in PepcDB records.
Take “MTAPASSLDRFFGLRARGTTVRREILAGTTTFMTMAYILFVNPEILGSAAGAGHFAAILTSTALVAAVMTAAMGLFANLPLALASGMGLNAVVAFGLVLGKKLTYPQAMGVIVAEGVLITLLVATGLRQAVVRAVPMTLKRAIGIGIGLFLAIIGFKAAGFISAGGALLQLGPEGAAGRLTGFPVVLFALTLVFTAWLVSRGVRGALLIGIAVSTAVAVTAKAAFGGAGFAPHVANLPSSIFGLPDFSMLGQVDFSFVAVLGPLAASLAVFSIMLSDFFDTVGTVVAVGQEAKYLDEQGNFPRASTVLMVDSLAAIAGGLAGASSATTYVESAAGAASGGRTGLTSVTTAALFALCLFISPLAGIVPPQATGAVLVLVGYMMMRDVGAIAWDDPSESIPAFLTVTVMPFTYSITNGIGAGFVSYVLLKLAGGKAREVHPLMIGASVAFVVYFAIGG”: the protein production entry is recorded as “failed”. Turning to “MTAPDRSPPRYKSDLIYGLNDRPHFSAAIFAALQHVLASFVGIISPTLIFGGVLGLESELPYLISMALFVSGLGTFVQARRLGPIGSGLLCVQGTSFSFISVLLSAGFMVKGRGGDTNEILSTIFGICFVAAFIEMFLSQFIGKLRKLITPVVTGTIITLMGLSLIKVAVTDMAGGYGASDLGAASNLGLAALVLLTIVVLNRFNHPMLRLGSIVIGLTLGFVVAWMLGRVDMAAMPEVPLVSVPVPFKYGFSFDLIAFIPLAVIFLISPLEAAGDLTANSMISQQPVKGPLYIKRIKSGLLADGFNSAVAAVFNSLPMVTFAQNNGVIQLTGVASRYVAYFIAGLLVLLGLFPVIGAVLQLMPKPVLGGATLIMFGTVAVAGIKILAEAGLHRRNVLIVAISLGMGLGVAAVPEVLRELPKALHNIFESPITVGAFCAIFLNIFLPEEFLELEEDEFDPEAATLKVMQDPDMSGKANS”, the protein production entry is “failed”. In the case of “MTAQLISPTIHGILDYLLGAVLVVAPSVLGLPTGPAVIAYAVGGAHLAMSLLTGYAPGALRVIPFWAHGAVEAAGWAGLLVFLGLLTAPADGLFLASGVGILVVSALTDYGVETDGVRLRARRHAHARP”, the protein production result was “failed”. Under “MTAQPLLVFDFDGVIVDGMAEYWWSAWMAAQRLNAEPQGLGSDAVPQGFRRLRPWVHHGWEMVLLAAEMPQLDPERWVVDYATEQDMALQRRGWSASLLQEALDQTRQQAVSSDRAAWLGLHQPFPGLVDRLQAFQEEGVDWAVLTTKTAAFTAELLESLGLRPWRLDGREAGPKPEVLLRLQRERVLAGFVEDRRATLETVRDTDGLQSLPCWLASWGYLKPSDREDLPRGIQLIDQDRLATPLAQWP” stands “failed”. Turning to “MTASLEIRPFQETDLDFVRQLARQEDFAPGIGDIAIYANTANQGVWLAWQGDMPVGCIAAVKYNLDYGFMGLFVVHPDHRGGGVGRQLWDHALALLADVTCIGLEAAPSMVEFYQRQGFRKDSITTRRQHLRLEESSQHPTRRLLHRNDITIVPLKAISLDAVQAYDERHEISPRPHFLQQWLNHQAGDVFVAMDGSHQCHGYVRIRPCLLPIGQGWRIGPLLAEEPGIASLLLSNAMDRHKGIILIDTPGHNRSARTVAGAKGFRRMGATHRMYKGDLDNGHDQNIYGLACLELG”, the protein production entry is “failed”.

On to “MTASSKRTKKQAILETALQLFVSQGFHGTSTATIAREAGVATGTLFHHFPSKEQLLEQLFLGVKQEFADAIQASVSSRGDLKQDAEQLWFAALTWAMANPLKQAFFQLYSMSPTVEQSVRDQAMHGILGFIAELIRQGQASGELAEYPIELMQDNCHGQYLAATRYFVDHPERWQQAHERSASFALFWNAMAVR”, for which the protein production entry was “not failed”. As for “MTATASTVLPARALLLDMDGTLVNSDAAVDRVWRRWADRHGLDGDEVMKVVHGRQGYASMALLLPDRPMEHNHADNARMLAEETADTEGVVAIPGAAEFLASLRGLPHALVTSADVALSTARMAAAGLAQPDVRVTAESVGASKPDPEGFLKGAAELGIAPADCVVFEDSGAGIAAGRAAGMRVVGVGPRAGFHGPDVVVEDLTRVRVEADADGGLRLHIG”, the protein production entry is “failed”. In the case of “MTATEPTEKILPSPDYVQSLARGLAVIRCFDHRNQRRTLSDVARATDLTRATARRFLLTLVELGYVATDGSAFWLTPRVLELGYSYLSSLSLPEVAQPHLEKLSHKVHESSSVSILDGADIVYVARVPVSRIMTVGITIGTRLPAYATSMGRVLLAGLPDDELDAYLEKLDIQRLTERTITARDELKAAILAVRADGICVLDQELEAGLRSMAAPIRGASGLTVAAVNISTPAARYSLEDLHSDLIPSLRVTATDIEQDLATVNR” it was “not failed”. In the case of “MTATQITGVVLAAGRSNRLGTPKQLLPYRDTTVLGATLDVARQAGFDQLILTLGGAASAVRAAMALDGTDVVVVEDVERGCAASLRVALARVHPRATGIVLMLGDQPQVAPATLRRIIDVGPATEIMVCRYADGVGHPFWFSRTVFGELARLHGDKGVWKLVHSGRHPVRELAVDGCVPLDVDTWDDYRRLLESVPSLEHHHHHH”, the protein production result is reported as “failed”. Turning to “MTDACCLKGNEDKMVPRFGHGTWIGKAFNDTPEMLHERSLRQEKRLERANELMNDDSLQKLETAAMARSRSVDSAPLGNYTIWKNEYRRGKSFEDMLRLMQDQIIMARVYSGLAKFTNNLALHQEIETQLMKLAWEEESTDIDQEQRVLDSIRDMGQILARAHEQLYECKLVTNKLRAMLQTVEDELENEQTYITFLTQLASKALPDAIHCLTMRLNLEYHLLPLPMRNFPRRENLENPKLYHYALFSDNVLAASVVVNSTVMNAQDPSRHVFHLVTDKLNFGAMSMWFLLNPPGEATIHVQRFEDFTWLNSSYSPVLSQLESAAMKKFYFKTARSESVESGSENLKYRYPKYMSMLNHLRFYIPRIFPKLEKILFVDDDVVVQKDLTPLWSIDLKGKVNENFDPKFCGWAYGMNIFDLKEWKKNNITETYHFWQNLNENRTLWKLGTLPPGLITFYNLTQPLQRKWHLLGLGYDKGIDVKKIERSAVIHYNGHMKPWTEMGISKYQPYWTKYTNFDHPYIFTCRLFE”, the protein production result is “failed”. In the case of “MTDARPHLRLRLARPEDMPALSALMDRAIGELLQDFLPPEGVKASYEIMGLDTQLIADGTYFVVEDGAAIAGCGGWSRRATLFGGDHSAGRDAALLDPKTDAARVRAMYTHPDHTRKGVGRIILDACEAAARAEGFSSVEMAATMGGVPLYRACGYHDIEPFEAVTSTGYRVPLIRMGKAL” it was “failed”; in that of “MTDIHHQPEQTDDELYRHFFSRGGSLRLLADIQGEDLESLYGYAKQLFDGGEIAAARNVYQLLSTLDHWNFDYLLALGLCHQRLGAHNEAVVCFGRAGLIKVDDPRAAFYAGISYRLDGNAEYASKAFKAAINWCGEQIDYQAIKASAVDMLALQQEEVPC”, “failed”; in that of “MTDKFLQFPVIDPIIFSIGPVSLRWYGTMYLIGFLAAMFMANKAADRSNGLWTRDQVSDVLFYGFLGVILGGRVGYVLFYQFEYFLSDPLYLFEIWQGGMSFHGGLLGVILAVFIFARKTNKSFLAVGDFVVPLVPIGLGMGRLGNFINAELWGRQTDVSWAMVFPTDPLQVPRHPSQLYEFALEGVVLFAILYIISRKTRSLGLASGTFLIGYGVFRSIVEFFREPDAHLGLYFSFISKGQILSIPMILAGILIIYLGYLSQQKSAIAQGDKALAAGGKSGKKTVKGNN”, “failed”. For the sequence “MTDLPPPFTTLAAAHRVDAVIDHSEFLAFAERADSPEEALAHLAALRTRYPDATHHCWAYRIGAAYRFGDDGEPGGTAGAPILRAIEGQGVDHVMVVVVRYYGGVKLGTGGLVRAYGGVAAECLRTAPRLDVRPRRTLQVSVPFDHLSGLYHLLGTWDAARGEETYTGAGVTLPVEVYPEDVEAFQAALRDATRGSAVVEEEE”, the protein production result is reported as “not failed”. In the case of “MTDLWLTLVNSVNAALGEVHVMTAWEALAVVLAMAYLLLAMKASVWCWAAAFTSTAIYTVLFWKVALLMESMLNIYYMGMALYGYWLWTQGGDKHQGVKVTTWPLKTHLKLIAATTLVSLGIGHGMATFTQASFPYLDAATTCFAVMTTYLVAKKVLENWLYWVVIDLVSIYLYLSKGLMLTSLLFVLYVGLAVVGYFLWRTALAESRLNLNGERAAKLLG” it was “failed”; in that of “MTDQTRTSPLVNRLLKMISLCALGYLLIILAIIIPRGIQSVEQQKQELEEKLALSLSNSAAIALYVNNYDIASEVMDALLLHQEINAVKLASVDGIVFERTTIPSTYKEQNYWSDANRYRLDSPVDGNLIGYLMIHEDHQVIRQQAINQILDQIAVVLIQFLVTFIALIWIVRRLVGKPLTDLSQALSEVRPDHDRKVAVAAEDHHNEIGLVAKSINEFIDASHQALLRERELRQQIERWESYYRTIAEQDTLTGLKNRLGCEKFVLRKQRASTTMVLLLIDLDGFKQVNDTLGHAAGDEVLREIAKRFYALAQTHFSDFVVGRLGGDEFAIYIPLDEFVAESIERFAAQLIESSSEPIGLGQQSAQVGCSIGISHMNSLHIDLEKLLLQADKAMYWVKYRGKHGYHIYRMGEEILPLPSAKELKQDQFR”, “failed”; in that of “MTDRAPADKYVVWVVLALSSVGVVAVYSAVTYLAEVRAGTEPVHFLLRHLARVGIALGAMGVVSLIDYRTLARYSRLALVGTLLLLVAVKVVGLFSGGADRWLQIGGVGFQPSEFARVALVLYVAVLLVQKQDYVKSFSRTFLPVLFWVGVTVGLIALDDLSTALVLLLGVLLMSFVGRVSVLQIGGLAVLGGVMAFGVLSTSPDRAARLEAYLGMDLFPNTDTEQVMDARGEQYQSRQARMAFAAGGFTGVGPGKSVQRDFLPEPYNDFIFAIIAEEYGIFGALALLTGFFVLLFRGYLRIARDAPDPLGLILAVGMTTLVVTYGFVHAGVASGLLPVTGLPMPFVSYGGTSLLANGIMIGVLLNISRHAGQRSAERV”, “failed”. “MTDRDSLEPISRDELQARVAAGSVLVLDVRPAMEYAAGHLPGAVSIPLDELAERLDELPSGIDIVACCRGPYCVYAYDALELLRPNGFSARRLDGGFSEWLAADLPVVRTLEHHHHHH”: the protein production entry was “not failed”.

In the case of “MTDRLERKLAIAANQDKADLLIKNGQIVDVFQLETFEGDVVIADGEIVAISDPGTYEAHEEVDAKGAFIAPAFIDGHVHIESSMVAPEQFAKVVVPHGVTTVIADPHEIANVAGVQGVEYMLDASEGIPLDVKMMVPSCVPATPFEHSGARLTAEEVAELFRDPRIFGLGEVMDYPAVLTRDQEMMAKLKAAHSEGRIVDGHGAGLDSVALNAYTAAGIGNDHEAVTPEEAKARLQRGMYLLIREGTAAKDFDALMKAITPMNSRRALFVTDDKHLDELVEEGSIDHHVRKAIQIGVNPLQAIQMASLNAAECFKLAKKGAIAPGFTADLLFIEDLQSLAITHVFKNGTCVAKNGKLIVPIRETVQPPQRLLESVNMKLVTKEQLELSLQSDEEAHLIQIQPGSIVTKHIREKVAVKDGVFIPSVARDQLKLVVAERHHKRGTVGVGIVKGFGLTKGAIATTVAHDSHNIVAVGTNDEDLLAAIKELENIQGGMTIVKDGKVLVSLPLTIGGLMSDQSYDVVCEQIKSVDAAIGALGFVGDFNPFLTLSFLALPVIPEIKLTDQGLFDVTSFSFIDQQVYAEETN”, the protein production entry is on record as “failed”.

Regarding “MTDSTTELTPAAPVSWPDGKTCAVAFTFDVDAESPLLTTDPAFADRMGTMSHQAYGPLVGVPRLLGILDEFNVPGTFFVPGYTAHRHPEPIRSIARAGHEIAHHGYLHESLVGADEDTERKILTRGIEALEEVAGVHPVGYRAPMWEMNWHTPKLLAEFGFLYDSTLMDSDHPYELAVGDGSLVELPVSWALDDWQQYCFVPDFSGTGLIETPAKAIELWRAELNAMRDIGGAWVLTNHPFLSGRPGRAAALREFIAEVCAMDDVWVAGMSQIAEHVRAQKLTPRTLTRPELTPVAE”, the protein production entry is recorded as “not failed”.
